In PMC9988990:

Tests used:
Test in all cases: SEC; Superose 6 10/300 in 10 mM Tris, 100 mM NaCl, pH 8.0, after StrepTactin affinity purification; peak of the trimeric ectodomain
[1] = target: recombinant gorilla GII FV Env ectodomain variant mut2 (R356A/R369A) (simian foamy virus, gorilla (genotype II))
[2] = target: recombinant gorilla GII FV Env ectodomain, wild type (simian foamy virus, gorilla (genotype II))
[3] = target: recombinant gorilla GII FV Env ectodomain variant mut1 (K342A/R343A) (simian foamy virus, gorilla (genotype II))

## recombinant gorilla GII FV Env ectodomain variant mut2 (R356A/R369A) (domain or fragment)
[1]
  stoichiometry N: 3

## recombinant gorilla GII FV Env ectodomain, wild type (domain or fragment)
[2]
  stoichiometry N: 3

## recombinant gorilla GII FV Env ectodomain variant mut1 (K342A/R343A) (domain or fragment)
[3]
  stoichiometry N: 3
